Results reported in publication PMC11861162.

Biological target: SHIVC109P7 gp140 protein (soluble Env) (HIV-1 subtype C (Env of SHIVC109P7))
Assay: native gel or EMSA

SHIVC109P7 gp140 protein (soluble Env) (domain or fragment)
stoichiometry N: 3
